According to patent US20160030510:

Target: human tau protein, P10636
Sequence (P10636 whole entry, looked up): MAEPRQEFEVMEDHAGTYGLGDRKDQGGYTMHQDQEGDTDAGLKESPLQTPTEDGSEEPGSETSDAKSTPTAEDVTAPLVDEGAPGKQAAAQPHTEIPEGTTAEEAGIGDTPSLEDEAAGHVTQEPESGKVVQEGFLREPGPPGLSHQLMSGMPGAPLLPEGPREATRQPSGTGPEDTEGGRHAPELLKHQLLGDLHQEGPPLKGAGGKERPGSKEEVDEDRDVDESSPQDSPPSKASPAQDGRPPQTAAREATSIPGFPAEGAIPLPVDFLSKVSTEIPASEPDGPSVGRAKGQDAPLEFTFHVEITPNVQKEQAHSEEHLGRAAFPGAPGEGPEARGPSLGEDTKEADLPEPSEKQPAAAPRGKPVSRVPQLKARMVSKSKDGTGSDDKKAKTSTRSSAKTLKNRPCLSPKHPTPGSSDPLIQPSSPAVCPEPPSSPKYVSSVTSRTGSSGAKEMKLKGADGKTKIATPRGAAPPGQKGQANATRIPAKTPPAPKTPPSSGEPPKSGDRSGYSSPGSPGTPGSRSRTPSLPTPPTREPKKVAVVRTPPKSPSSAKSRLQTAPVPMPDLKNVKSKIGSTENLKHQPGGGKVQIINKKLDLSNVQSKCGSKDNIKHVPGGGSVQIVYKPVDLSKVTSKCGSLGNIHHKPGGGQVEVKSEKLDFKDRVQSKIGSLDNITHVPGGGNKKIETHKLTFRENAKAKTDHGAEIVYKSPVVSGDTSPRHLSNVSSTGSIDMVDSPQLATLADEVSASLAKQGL

B1: human MARK4 (microtubule affinity regulating kinase 4) (protein)
chain: MSSRTVLAPGNDRNSDTHGTLGSGRSSDKGPSWSSRSLGARCRNSIASCPEEQPHVGNYRLLRTIGKGNFAKVKLARHILTGREVAIKIIDKTQLNPSSLQKLFREVRIMKGLNHPNIVKLFEVIETEKTLYLVMEYASAGEVFDYLVSHGRMKEKEARAKFRQIVSAVHYCHQKNIVHRDLKAENLLLDAEANIKIADFGFSNEFTLGSKLDTFCGSPPYAAPELFQGKKYDGPEVDIWSLGVILYTLVSGSLPFDGHNLKELRERVLRGKYRVPFYMSTDCESILRRFLVLNPAKRCTLEQIMKDKWINIGYEGEELKPYTEPEEDFGDTKRIEVMVGMGYTREEIKESLTSQKYNEVTATYLLLGRKTEEGGDRGAPGLALARVRAPSDTTNGTSSSKGTSHSKGQRSSSSTYHRQRRHSDFCGPSPAPLHPKRSPTSTGEAELKEERLPGRKASCSTAGSGSRGLPPSSPMVSSAHNPNKAEIPERRKDSTSTPNNLPPSMMTRRNTYVCTERPGAERPSLLPNGKENSSGTPRVPPASPSSHSLAPPSGERSRLARGSTIRSTFHGGQVRDRRAGGGGGGGVQNGPPASPTLAHEAAPLPAGRPRPTTNLFTKLTSKLTRRVADEPERIGGPEVTSCHLPWDQTETAPRLLRFPWSVKLTSSRPPEALMAALRQATAAARCRCRQPQPFLLACLHGGAGGPEPLSHFEVEVCQLPRPGLRGVLFRRVAGTALAFRTLVTRISNDLEL
in vitro kinase assay: phospho-tau, Western blot: the levels of total tau and phospho-tau generated by MARK4 were detected by Western blot analysis
